According to the nanobody polyreactivity screen of Harvey et al. (2022):

Test: yeast display, Sf9 membrane polyspecificity reagent, FACS + sequencing; frameworks hold sequencing errors
Method in brief: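 A synthetic nanobody library was expressed on Saccharomyces cerevisiae BJ5465 by galactose induction for 36–48 hours. The library was stained for 1 hour at 4 °C with 10% biotinylated, detergent-solubilized Sf9 membrane reagent and enriched with streptavidin microbeads before FACS. Low and high (top ~1%) gates were set on anti-HA fluorescence for expression and streptavidin fluorescence for reagent binding, and each polyreactivity label reflects the gate of origin.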

QVKLVESGGALVQAGGSLRLSCAASGSTFGWYAMGRYRQAPGKERELVAGISSGGASTYYADSVKGRFTISRDNAKNTFYLQMNSLKPEDSAVYYCAKDQIFRGYKTKFGYWGQGTQLTVSS
polyreactivity (PSR sort gate): low polyreactivity

QVKLVESGGALVQAGGSLRLSCPASGRTFGQTAMGWYRQAPGKERELVAAITWSDDDTYYADSVKGRFTISRDNAKNTVYLQMNSLKPEDTAVYYCAATYPYRQYDYWGQGTQVTVSS
polyreactivity (PSR sort gate): low polyreactivity

QVKLVESGGGIVKAGCSLRLSCGASGLTYNTYDMGWYRQAPGKERELVADISRGRGSTYYADSVKGRFTISRDNAKNTVYLQMHSLKPEDTAFYYCNAEKRSSYLMYDYWGQGTQVTVSS
polyreactivity (PSR sort gate): high polyreactivity

QVKLVESGGGLDKAGGSLRLSCAASGLIFYLYPKGWYRQAPGQERELVAAISRSGDTTYYADSVKGRFTISRDNAKNTVYLQMNSLKPEDTAVYYCAADDYYKFDYWGQGTQVTVSS
polyreactivity (PSR sort gate): low polyreactivity

QVKLVESGGGLVKAGGRLRLSCAASGRTFWYNAMGRYRPAPGKESELVAAINFSGGITYYADSVKGRFTISRDNAKNTVYLQMNSLKPEDTAVYYCNAVSRGRDAAGNYWGQGTQVTVSS
polyreactivity (PSR sort gate): high polyreactivity

QVKLVESGGGLVKAGGSIRLSCAASGFTFGVYAKGSYRQAPAKERELVAAISTTVGSTYYADSVKGRFTISRDNAKNTVYLQMNSLKPEVTAVYYCSAEYTGYINYYIYEYWGQGTQVTVSS
polyreactivity (PSR sort gate): low polyreactivity

QVKLVESGGGLVQAGGILRLSCAASGLIFTTYAMGWYRQAPGKERELVAVISGCGSTSYADSVKGRFTISRDNAKNTVYLQMNSLKPEDTAVYYCAADKPVSQGPIPGYTNDYWGQGTQVTVSS
polyreactivity (PSR sort gate): low polyreactivity

QVKLVESGGGLVQAGGRLRLSCAASGSIFLLYPMGWYRQAPGKERELVAAISSGGSTYADSVKGRFTISRDNAKNTVYLLLNSLKPADTAVYYGAKVGGWYDPYTYGYSEYGYWGNGTQVTVSS
polyreactivity (PSR sort gate): low polyreactivity

QVKLVESGGGLVQAGGSHRLSCPASGRIFYPYAMGWYRQAPGKESELVAAISWSTVSTYYADSVKGRFTISRDNAKNNVYLQMNSLKPEDTAVYYCAARLYFSSSLRCVDFWGQGTQVTVSS
polyreactivity (PSR sort gate): high polyreactivity

QVKLVESGGGLVQAGGSLLLSCAASVLTFYRYVIVCYRQEPGKERELVAAITKSGGSTYYADSVKGRFTISRDNAKNTVYLQMNSLKPEDTAVYYCAVRSYWRGDYWGQGTQVTVSS
polyreactivity (PSR sort gate): high polyreactivity

QVKLVESGGGLVQAGGSLRLICAASGNTFGPYDMGWYRQAPGKERQLVAGITSGGSTYYADSVKGSFTITRDNAKNTVYLQMNSLKPEDTAVYYCAADYYLWVYWYDYWGQGTQVTVSS
polyreactivity (PSR sort gate): high polyreactivity

QVKLVESGGGLVQAGGSLRLSCAASGFTFANYAMGWYRQAPGKEREFVAAITKGGGSTNYADSVKGRFTISRDNAKNTVYLQMNSLKPEDTAVYYCNADYFVWYIGRVFSRYGYWGQGTQVTVSS
polyreactivity (PSR sort gate): low polyreactivity

QVKLVESGGGLVQAGGSLRLSCAASGGIFTDYTMGWSRQAPGKERELVAAITWTGGSTYYADSVKGRFTISRYNAKNTVYLQMNSLKPEDTAVYYCSADDYWVNLDYWGQGTQVNVSS
polyreactivity (PSR sort gate): low polyreactivity

QVKLVESGGGLVQAGGSLRLSCAASGLIFQKYAMGWYRQPPGKERELVAAISGGGRTYYADSVKGRFTISRDNSKNTVYLQMNSMKPEDTAVYYCAVYWYYLGYYYYYDFDYWGQGTQVTVSS
polyreactivity (PSR sort gate): high polyreactivity

QVKLVESGGGLVQAGGSLRLSCAASGRICLSYTMGWYRQAPGKERELVATIDSGVSTNYADSVKGRFTITRDNAKNTVYVQMNSLKPEDTAVYYGNADGFYSSHGYDYWGQGTQVTVSS
polyreactivity (PSR sort gate): low polyreactivity

QVKLVESGGGLVQAGGSLRLSCAASGRTFGVYAMGWYRQAPGKEREFVATITSRGGRTYYADSVKGRFTISRDNAKNTVYLQMNSLKPEDTAVYYCAVGRGSLRGRTDGGYWGQGTQVTVSS
polyreactivity (PSR sort gate): high polyreactivity

QVKLVESGGGLVQAGGSLRLSCAASGRTISGNAMGWYRQAPGKERELVATISGRGGSTYYADSVKGSFTISRDNAKNTVYLQMTSLKPEDTAVYYCAKRLYSRRPLMDSWGQGTQVTVSS
polyreactivity (PSR sort gate): high polyreactivity

QVKLVESGGGLVQAGGSLRLSCAASGRTLGGYAMRWYRQAPGKERQLVAAITRRGGSRYYADTVKGRFTISRDNAKNTVYLQMNSLKPEDSAVYYCAARWYARSLTRFNYWGKGTQVTVSS
polyreactivity (PSR sort gate): high polyreactivity

QVKLVESGGGLVQAGGSLRLSCAASGSIFSRNTIGCDRQEPGKERELVAGISSSGSRTYYADSVKGRFTISRDNAKNTVYLQMNSLIPEDTAVYYCAAEHQRSRGRRYYIGYDYWGQGTQVTVSS
polyreactivity (PSR sort gate): low polyreactivity

QVKLVESGGGLVQAGGSLRLSCAASGSIYWYAMGWYRQAPGKERELVAAISRRGGSTYYADSVKGRFTISRDNAKNTVYLQMNSLKPEDTAVYYCAVGIYGEYDYWGQGTQVTVSS
polyreactivity (PSR sort gate): high polyreactivity

QVKLVESGGGLVQAGGSLRLSCAASGSTFGINARGWYRQAPGKERELVAAITFISGSTNYADSVKGRFTISRDNAKNTVYLQMNSLKPEDTAVYYCAARCTSTPVYSRYGYWGQGTQVTVSS
polyreactivity (PSR sort gate): low polyreactivity

QVKLVESGGGLVQAGGSLRLSCAASGSTFLIYAMGWYRQAPGKERELVAAITVSGGDTYYADSVKGRFTISRDNAKNTVYLQMNSLKPEDTAVYYCAAEGGNDYSSVDAGISYDYWGQGTQVTVSS
polyreactivity (PSR sort gate): low polyreactivity

QVKLVESGGGLVQAGGSLRLSCAASGSTFVVNAMGCYRQAPGKERELVAAITQSGGSTFYADSVKGRFTISRDNAKNTVYLQMNSLKPEDTAVYYCAADTYYYYWFACYTEYDYWGQGTQVTVSS
polyreactivity (PSR sort gate): low polyreactivity

QVKLVESGGGLVQAGGSLRLSCAAYGSTFAYNAMGWYRQAPGKERELVADISWSGGSTYYADSVKGRFTISRDNAKNTVYLQMNSLNPEDTAVYYCATEYSEGITQFFWATDYDYWGQGSQVTVSS
polyreactivity (PSR sort gate): high polyreactivity

QVKLVESGGGLVQAGGSLRLSCADSGRTFYYNTMGWYRQAPGKERELVADITISGGSTYYADSVKGRFTISRDNAKNTVYLQMKSLKPEDTAVYYCAAGWFSLSTAYYHKRVGYNYWGQGTQVTVSS
polyreactivity (PSR sort gate): high polyreactivity

QVKLVESGGGLVQAGGSLRLSCAPSARIFDIYPLGWSRQAPGKERELVAGITSVGSTNYADSVKGRFTISRDNAKYTVYLQMTSLNPEDTAVYDCASVTSVHSEVDYWGQGTQVTVSS
polyreactivity (PSR sort gate): low polyreactivity

QVKLVESGGGLVQAGGSLRLSCHASGFTFPYYAMGWYRQAPGKERELVAAISQIGDRTYYADSVKGRFTISRDNAKNTVYLQMNSLKPEDTAVYYCNGAGKVRKYGYWGQGTQVTVSS
polyreactivity (PSR sort gate): high polyreactivity

QVKLVESGGGLVQAGGSLSLSCDASGNTFVRNVMGSYRQEPGKERELLAAIRSGTRTYYADSVKGRFTISRDNAKNTVYLQINSLKPEDTAVYYCATYRTYNSYRYDYWGQGTQVTVSS
polyreactivity (PSR sort gate): high polyreactivity

QVKLVESGGGLVQSGGSLRLRCAASGSTITGYAMGWYRQAPRKERDLVAAITYTGTSTYYADTVKGRYTISRDNAKNTVYLEMNSLNPEDTAVYYCAARLAWWKTYIRYYYWGKGTQVTVSS
polyreactivity (PSR sort gate): high polyreactivity

QVKLVESGGRLVQAGGSLRLSCAASGIIFFSYAMRSYRQAPGKERELVAAISGTGGNTYYADSVKGRFTISRDNAKNTVYFQMNSLKPEDTAVYYCAADQEWYYYFVSFAYYILDYWGQGTEVTVSS
polyreactivity (PSR sort gate): high polyreactivity

QVKLVESGGRLVQAGGSLRLTCAASGFIFLNYSMGWYRQAHGKERELVAAISRSGGRTYYADSVTGRFTISRDYAKNTVYLQMNSLKPEDPAVYYCAVYIYGIVFYFTYMYVNCYDYWGQGTQVTVSS
polyreactivity (PSR sort gate): high polyreactivity

QVKLVESGGVLVQAGGSLRLSCAASGSIFVYNAMGWYRQAPGKERELVAAISQRGGSTYYADSVKGRFTISRDNAKNSVYLQMNSLKPEDTAVYYCAAGPGDSGDDYWGQGSQVTVSS
polyreactivity (PSR sort gate): low polyreactivity

QVKLVESGRGLVQAGGSLRISCDASGSIFYYYAMGWYRQAPGKERELVAAINGGDTNYADSVKGRFTISRDNAKNTVYLQMTSLKPEDTAVYYCAAEGVTVEWDYDYWGQATQVTVSS
polyreactivity (PSR sort gate): low polyreactivity

QVKLVESGRGLVQAGGSLRLSCAASGFTFRYYGMGWYRQAPGKERELVASITASGVSTSYADSVKGRFTISRDNAKNTVYLQMNSLKPEDTAVYYCNAVVGAWSLFDYWGQGTQVTVSS
polyreactivity (PSR sort gate): high polyreactivity

QVKLVESGRGLVQAGGSLRLSCAASGYKCIVYTMGWYRQAPGKERELVAAISSGGITAYADSVKGRITISRDNAKNTVYLQMNSLKPEYTAVYYWGQGTQVTVSS
polyreactivity (PSR sort gate): low polyreactivity

QVKLVESRGGLVQAGGSLRLSCAASGFTFFLYTMGWYRQAPGKERELVATITSAGTTNYADSVKGRFTISRDNAKNTVYLQMNSLIPEDTAVYYCNADRWEYDYWGQGTQVTVSS
polyreactivity (PSR sort gate): low polyreactivity

QVKLVQSGGGLVEAGGSLLLSCAASGRIFDQYAMGWYRPAPGKERELVAAITTSGDNTYYADSVKGRFTISRDNAKNTVYLQMNSLKPEDTAVYYCKVDIDTFWYGSDYWGQVTQVTVSS
polyreactivity (PSR sort gate): high polyreactivity

QVLLQESGGALVQAGGSLRLSCAASGTISTDIRMGWYRLAPGKEPEFVASIDGCSTTYYADSVKVRFTISRDNEKNTVYLQMNSLKPEDTAMYYCAAREATEFYLYYWGQGTQVTVSS
polyreactivity (PSR sort gate): low polyreactivity

QVLLQESGGGLVQAGGSLRLGCAASGTISPAYYMGRSHQAPGKEREFVAAITYGTNTYYADSVKGRFTISRDNAKNTVYLQMNSLKPEDTAVYYCSATAGYNGAHDYWGQGTQVTVSS
polyreactivity (PSR sort gate): low polyreactivity

QVLLQESGGGLVQAGGSLRLSCAASGSIFLFYTMGWNRQAPVKEREFVAGITLGTTTYNADSVKGRFTISRDNVKNTVYLQKNSLKPEDTAVYYCAVAVGHYTEFWYWGQGTQVTMSS
polyreactivity (PSR sort gate): high polyreactivity

QVLLQESGGLGQAGCSLPMSCAASGSISTALSMGWYRQAPGKERELVATISDGASTNYADSVKGRFTISRVNAKNTVYLQMNSLKPEDTEVYYCADQSQYRQDHRYWGQGTQVTVSS
polyreactivity (PSR sort gate): high polyreactivity

QVLLVESAAGLVQAGGSLRLSCAASGSTFQGNAMGGYRKAPGKERELVAAISRSGGSTYADSVKGRFTISRDNAKNTVYLQLNSLKPEDTAVYYCAAYSGVGYLWFDYWGQGTQVTVSS
polyreactivity (PSR sort gate): low polyreactivity

QVLLVESCGGLVQAGGSLRLSCAASGRIFPLYAMGWYRQAPGKERELVAAISSGGTTYYADSVKGRFTISRDNAKNTVYLQMNSLKPEDTAVYYCNVEYVISWWMYDYWGQGTQVTVSS
polyreactivity (PSR sort gate): low polyreactivity
